# Tests used:
# [1] = test system: MS2 coat protein; experiment: apparent KD of MS2 coat protein, switch ON state; designed switch direction (-1 OFF switch, 1 ON switch): -1; higher = weaker reporter binding; conditions: FMN input: 0 or 200 uM; Eterna round: R93 (includes R88 designs)
# Outline: (§1)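 Designed RNA switches were transcribed on-chip from Illumina sequencing clusters. They were then titrated with SNAP-549-labelled MS2 coat protein (twofold steps, 0.7 or 1.5 nM to 3 µM; 0.8–1.5 h to 10–20 min per step) in 100 mM Tris-HCl pH 7.5, 80 mM KCl, 4 mM MgCl2, without or with constant ligand. Apparent KD is the per-design median of normalised cluster binding-curve fits.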
# [2] = test system: MS2 coat protein; experiment: apparent KD of MS2 coat protein, switch OFF state (with FMN for OFF switches, without FMN for ON switches); designed switch direction (-1 OFF switch, 1 ON switch): -1; higher = weaker reporter binding; conditions: FMN input: 0 or 200 uM; Eterna round: R93 (includes R88 designs)
# Outline: as §1
Sequence,apparent KD of MS2 coat protein [1] [µM],apparent KD of MS2 coat protein [2] [µM]
AGUCAUACAGGAUAUACAUGAGGAUCACCCAUGUAAAUCCUAAAAAAGUGAUCCUCAUGUAGAAGGGUAUGACA [EX3 220: Super Stable 20],0.0191,0.0197
AGUCUGAGAGGAUAUACAUGAAAAAAAAAAGUAAGAUCCCUACAUGAGGAUCACCCAUGUAGAAGGCUCUGACA [Ex2 Design 145: Sub-opt 9],0.0314,0.0294
AGUCUGAGAGGAUAUACAUGGGAAAAAAAAGUCAGAUCCCUACAUGAGGAUCACCCAUGUAGAAGGCUCUGACA [Ex2 Design 147: Sub-opt 11],0.0222,0.0114
AGUGAGUGAGGAUAUGCCUGAAGAAUAAAAGAAAUAACGAGGCAGAAGGCACAUGAGGAUCACCCAUGUACACA [May 65],0.0321,0.0282
AGUGAGUGAGGAUAUUACUGAAGAAUAAAAGAAAUAACGAGUAAGAAGGCACAUGAGGAUCACCCAUGUACACA [May 62],0.0255,0.024
"AGUUGGCGAGGAUAUACAUGAGGAUCACCCAUGUAAAAUAAAUAAAAAAGGGAAGAAAGUAGAAGGCGCUGACA [73%, Moding Norbert Elias, 11]",0.0405,0.175
"AGUUGGCGAGGAUAUACAUGAGGAUCACCCAUGUGAAAGAAAAAAGUGAAAAAGAAAAGUAGAAGGCGCUGACA [73%, Moding Norbert Elias, 4]",0.0313,0.131
AUAAAGUCAGGAUAUGUAAAAAUAACGAAAGUUAUAAAUAAACAGAAGGGACAUGAGGAUCACCCAUGUACAAU [Opal 15],0.0254,0.0212
AUAAAGUGAGGAUAUGCUAAUAAAUAAAUAGACAAAUAAAUGCAGAAGGCACAUGAGGAUCACCCAUGUAAGAA [Ex 4 Tesla 3],0.0284,0.0289
AUAAUACAUGAGGAUCACCCAUGUCAGGAUAUGCUAAAAUUAAAAUUAAAUCAAAAAUGUAGAAGGGACUAAAU [Exclusion Z3],0.0498,0.0429
AUAAUGUCAGGAUAUCAGUAGUAAAAAAAAAAAAUUACUACUGAGAAGGGACAUGAGGAUCACCCAUGUCAAAA [EX4 307: Super Stable 7],0.0276,0.0249
AUCUAGUCAGGAUAUGACUACAUAAAAAAUAAAAAAUGUAGUCAGAAGGGACAUGAGGAUCACCCAUGUACUAA [Mat - Exclusion 4 - Eli mod - D95],0.0263,0.0293
CAAAAGCUAGGAUAUGCUAAUUGUUCCUUAAGUCAAAAUAAACAUGAGGAUCACCCAUGUAGAAGGAGCCCACA [Tegean],0.0315,0.0169
CAAUCUGCAGGAUAUACAUGAGGAUCACCCAUGUAAGGACAAUAAAUAAGAAGAAGAAGUAGAAGGGCAGACAA [e3],0.0275,0.0292
CAGUACUGAGGAUAUACAUGAGGAUCACCCAUGUGGUUAAGCUAGGAAACUAGCACAUGUAGAAGGCAGUACUG [Ex3: 814],0.0501,0.0195
CAUUCACAUGAGGAUCACCCAUGUAAGGAUAUCGAAAUAAAACUAAUCAAUAAACAAACGAGAAGGUACAAAAA [Exclusion 1 design 9],0.026,0.0212
CCCAUGUCAGGAUAUCAGUAGUAAAAAAAAAAAAUUACUACUGAGAAGGGACAUGAGGAUCACCCAUGUUCCAA [EX4 318: Super Stable 18],0.0583,0.053
CCUAUGUCAGGAUAUCAGUAGUAAAAAAAAAAAAUUACUACUGAGAAGGGACAUGAGGAUCACCCAUGUCCAAA [EX4 312: Super Stable 12],0.0256,0.0184
CCUGUGUGAGGAUAUGGUAAAAAAAAAAAAAAAAAGCUCCUCCAGAAGGCACAUGAGGAUCACCCAUGUCGUGG [Jolly's Folly 15 - Jieux - Exclusion 4],0.0189,0.0382
CUCAAGUAAGGAUAUUGAAGAAAAGAAGAGAAAGAAAAGAACAAGAAGGUACAUGAGGAUCACCCAUGUAAGAA [EteRNA is fun!],0.0334,0.0166

Sequence,apparent KD of MS2 coat protein [1] [µM],apparent KD of MS2 coat protein [2] [µM]
CUCAAGUCAGGAUAUUUAAGAAAAGAAGAGAAAGAAAAGAAAAAGAAGGGACAUGAGGAUCACCCAUGUAAGAA [EteRNA is fun!],0.0604,0.0413
CUCAAGUGAGGAUAUAUAAGAAAAGAAGAGAAAGAAAAGAAAUAGAAGGCACAUGAGGAUCACCCAUGUAAGAA [EteRNA is fun!],0.0295,0.0241
CUCAAGUUAGGAUAUUCAAGAAAAGAAGAGAAAGAAAAGAAGAAGAAGGAACAUGAGGAUCACCCAUGUAAGAA [EteRNA is fun!],0.0538,0.026
CUCAUGUGAGGAUAUGUACAGAAAAAAAUGGGUGAAACUGUACAGAAGGCACAUGAGGAUCACCCAUGUGCCAA [EX4 376: S S Pseudoknot 1],0.0522,0.0163
CUCUAGUGAGGAUAUGGAAGAAAAGAAGAGAAAGAAAAGAACCAGAAGGCACAUGAGGAUCACCCAUGUAAGAA [EteRNA is fun!],0.0389,0.0463
CUCUUGUGAGGAUAUCUAAGAAAAGAAAAGAAAGAAAAGAAAGAGAAGGCACAUGAGGAUCACCCAUGUAAGAA [EteRNA is fun!],0.0357,0.0846
CUUAGACAUGAGGAUCACCCAUGUGAGGAUAUGAUGCGAAUAAAGAAAGAAGAAAGCAUCAGAAGGCACAUAUG,0.0413,0.545
CUUAUGUCAGGAUAUCAGUAGUAAAAAAAUAAAAUUACUACUGAGAAGGGACAUGAGGAUCACCCAUGUCCGGG [EX4 369: Super Stable 69],0.0784,0.034
GAAAAACAUGAGGAUCACCCAUGUCAGGAUAUCGAAAAAAAUAAAAAAGAAAAGAAAACGAGAAGGGACAAAAA [May 12],0.0282,0.0456
GAAAAGUCAGGAUAUGCAGACAAAGCAAAAAAGCAAUGUCUGCAGAAGGGACAUGAGGAUCACCCAUGUAAAAA [Mat - Exclusion 4 - Mayanna - D115],0.0514,0.0452
GAAAAUGGAGGAUAUACAUGAGGAUCACCCAUGUGUAAAAAAAAUUACACAAAAGAAAGUAGAAGGCCAUAAAG [Mat - Exclusion 3 - Mayanna mod - D106],0.0498,0.138
"GAACACGGAGGAUAUACAUGAGGAUCACCCAUGUUGAUCCUCAUUAAAAUUGAUAAAUGUAGAAGGCCGUGAUA [Exclusion 3.11 (a Vinnie Mod, FMN+ favored more)]",0.0494,0.0212
GAAGAACAUGAGGAUCACCCAUGUCAGGAUAUGAAUAACGGAAUAAUACGUUAUGGAAUCAGAAGGGACAAGAA [Ex 1 May 52],0.0489,0.0594
GAAGAACAUGAGGAUCACCCAUGUCAGGAUAUGCAGAAGGGAAUAAUAACUUCUGGAAGCAGAAGGGACAAGAA [Ex 1 May 47],0.0296,0.0305
GAAGUGUUAGGAUAUCGAUGAAUAAUAAAACAAAGGAACAUUGAGAAGGAACAUGAGGAUCACCCAUGUAAAAC [May 82],0.0334,0.0256
GAAUACCUAGGAUAUACAUGAGGAUCACCCAUGUCAGUAGACUGGGAAAAGUCUCUCAGUAGAAGGAGGACCAG [Anaran],0.192,0.233
GAAUGUCUAGGAUAUACAUGAGGAUCACCCAUGUGUAAAAAUAAAUACACAAAAGAAAGUAGAAGGAGACAAAG [Mat - Exclusion 3 - Mayanna mod - D122],0.0285,0.0465
GAGGCUGAAGGAUAUACAAGGGCCUCACCGCCAAAACGGAAACAUGAGGAUCACCCAUGUAGAAGGUCAAUAAA [Reisvexe],0.0571,0.077
GAUAGUGAAGGAUAUACUGGAGGAGUGCGAUAGAAGAAAGAACAUGAGGAUCACCCAUGUAGAAGGUCAGAAGU [JR_Exc002_Sub1225],0.0323,0.0272
GCAAAGUGAGGAUAUACGCGAACAAUAAAAAUAAAGAAAGCGUAGAAGGCACAUGAGGAUCACCCAUGUCCAGC [Mat - Exaclusion 4 - Eli mod - D78],0.0235,0.0259

# Reference: the supplement of paper PMC9170038
